Measured values as given in patent publication US12006530B2, “Streptococcal proteases” (priority 2016, dated 2024).
Entries after “also recorded” stand apart in the source; their conditions may differ. Peptide text beside a SMILES is read from it. * marks the point of attachment. Cbz = O=C(OCc1ccccc1)*; CHN2 = [N-]=[N+]=C*

What was measured:
[1] = test system: IgG degradation activity in culture supernatant of S. suis strain 10; assay: Inhibitor profile of IgG degradation activity in S. suis culture supernatant, anti-IgG Western blot; type: biochemical, Streptococcus suis; settings: for IgG cleavage product in presence of inhibitor: inhibitor 0.1-5 mM, concentrated (10×) supernatant of strain 10, porcine plasma; for IgG cleaving activity in the presence of class specific protease inhibitors: protease enriched ammonium sulfate precipitates of S. suis culture supernatant, porcine plasma
Protocol: Concentrated (10×) culture supernatant of S. suis strain 10 was incubated with porcine plasma in presence of class specific protease inhibitors. The reaction was analyzed by anti-IgG western blot under reducing conditions.
To monitor IgG cleavage activity in concentrated and fractionated culture supernatants, samples were incubated with 1% porcine plasma in PBS for 16 h at 37° C. prior to Western blot analyses.
To identify the catalytic type of the IgG protease, the IgG degradation reaction was performed in the presence of 0.1-5 mM AEBSF (Sigma), 0.1-5 mM EDTA, 50-250 μM E-64 (Sigma), 0.1-5 mM Z-LVG-CHN2 (Bachem), 0.1-5 mM Iodoacetamide (Sigma) or 1/200 to 1/50 dilution of complete protease inhibitor cocktail (Roche).
(§1) Samples for SDS-PAGE were prepared with either reducing or non-reducing sample buffer and heated to 95° C. for 5 min. 12% SDS-PAGE was either stained with Coomassie blue (Sigma), Coomassie Fluor™ Orange Protein Gel Stain (Invitrogen) or blotted to Hybond-P PVDF membrane (GE Healthcare) for western blot analyses. Membranes were blocked with 5% dry milk powder in 0.1% PBS-Tween, followed by incubation with horse-radish peroxidase conjugated antibodies. Goat anti-pig IgG-HRP (Thermo Scientific) and goat anti-porcine IgM-HRP (Thermo Scientific) was diluted 1:25′000 and goat anti-porcine IgA-HRP (Thermo Scientific) was diluted 1:12′500. Membranes were thoroughly washed with 0.1% PBS-Tween prior to development with Amersham ECL Select Western blotting detection reagent (GE Healthcare) according to manufactures instruction and pictured by LAS4000 imaging system (Fujifilm).

S. suis IgdE^ΔC = assay: Inhibitor profile of purified recombinant IgdE^ΔC, quantitative IgG degradation analysis; type: biochemical, Streptococcus suis; settings: porcine IgG
Protocol: The time course of cleavage (A) was monitored by continuous sampling prior to Coomassie fluor orange stained SDS-PAGE under reducing conditions followed by densitometric quantification of the cleavage product. 1.67 μM porcine IgG was incubated with 0.2 μM purified rIgdE^ac. Overnight cleavage (16 h) was set as 100% relative cleavage. For the inhibitor profile (B) initial cleavage in presence of 250 μM and 2.5 μM of each inhibitor was monitored. Initial cleavage activity of the uninhibited control was set as 100% relative activity. The DMSO control correlates to 250 μM Z-LVG-CHN2. Data are presented as mean±SEM of three experiments. Differences to the uninhibited control (*) or DMSO control (□) were analyzed by Dunnett's Multiple Comparison Test with significance set at P values of <0.05(*), <0.01(**) and <0.001(*** or □□□).
For time course analyses and inhibitor profiles the IgG degradation reaction was performed with 0.25 mg/ml porcine IgG and 2 μM purified IgdE^ΔC at 37° C. in PBS uninhibited or in the presence of 2.5 μM or […] AEBSF (Sigma), EDTA, E-64 (Sigma), lodoacetamide (Sigma), or Z-LVG-CHN2 (Bachem). DMSO (Sigma) at 0.275%, corresponding to the DMSO content in 250 µM Z-LVG-CHN2, was used as a solvent control. The reactions were continuously sampled and subjected to SDS-PAGE under reducing conditions. Protein bands were detected by staining with Coomassie Fluor™ Orange Protein Gel Stain (Invitrogen). The IgG degradation product was densitometrical quantified by imaging with LAS4000 imaging system (Fujifilm) and analyzed with Image Studio Version 3.1 (LI-COR Biosciences) software. Uninhibited over-night cleavage was set as 100% relative cleavage for the time course experiment. For the inhibitor profile the initial cleavage rate was calculated from the initial increase of cleavage product (0-25% relative cleavage) and the initial cleavage rate of the uninhibited reaction was set as 100% relative activity. Experiments were at least performed in triplicates. Statistical analyses were performed using GraphPad Prism Version 5.0.

IgG = IgG degrading cysteine protease activity: specificity as summarised; type: biochemical; settings: summary statement
From the text: Typically, polypeptides for use in accordance with the invention display immunoglobulin cysteine protease activity, and in particular IgG degrading cysteine protease activity. Preferably, the polypeptide cleaves IgG in the hinge region and more particularly in the hinge region of the heavy chain. Preferably, cleavage results in production of Fc and Fab fragments of IgG. Preferably the activity is specific for IgG. The IgG degrading cysteine protease activity may be determined by means of a suitable assay. For example, a test polypeptide may be incubated with IgG at a suitable temperature, such as 37° C. The starting materials and the reaction products may then be analysed by SDS PAGE to determine whether the desired IgG cleavage product is present. Typically this cleavage product is a 32 kDa fragment. Typically there is no further degradation of IgG after this first cleavage. The cleavage product may be subjected to N-terminal sequencing to verify that cleavage has occurred in the hinge region of IgG.
The IgG degrading cysteine protease activity of the polypeptides is generally IgG-specific in that the polypeptides may not degrade other classes of Ig, namely IgM, and IgA, when incubated with these immunoglobulins under conditions that permit cleavage of IgG.

porcine IgA = assay: Ig cleavage in porcine plasma or serum, anti-IgA Western blot; type: biochemical, pig
Protocol: (§2) (A) 2% porcine plasma was incubated with (+) or without (−) 10 nM purified rIgdE.
(§3) The reaction was analyzed by anti-porcine IgG, IgM and IgA Western blots under reducing conditions. Only cleavage of IgG was observed (*). (B) 0.5 mg/ml IgG of different species was incubated with (+) or without (−) 10 nM purified rIgdE and analyzed by SDS-PAGE under reducing conditions. No cleavage of IgG derived from any other species than pig (*) was observed. The weak protein band of 37 kDa is a contaminant present in lysate preparation (see lane 2) and not related to IgdE activity. Images of different gels have been assembled into one figure.
as §1, with “Membranes were thoroughly washed with 0.1% PBS-Tween prior to development with Amersham ECL Select Western blotting detection reagent (GE Healthcare) according to manufactures instruction and pictured by LAS4000 imaging system (Fujifilm).” left out

porcine IgG [2] = assay: Ig cleavage in porcine plasma or serum, anti-IgG Western blot; type: biochemical, pig
Protocol: as §2, §3
as §1, with “Membranes were thoroughly washed with 0.1% PBS-Tween prior to development with Amersham ECL Select Western blotting detection reagent (GE Healthcare) according to manufactures instruction and pictured by LAS4000 imaging system (Fujifilm).” left out

mouse IgG = assay: IgG cleavage by IgdE, SDS-PAGE; type: biochemical; settings: purified polyclonal IgG, reducing SDS-PAGE
Protocol: (§4) 0.5 mg/ml of porcine IgG (Sigma) in PBS or of other species (human, goat, cow, horse and mouse; all Sigma) were incubated with either crude extracts of induced E. coli carrying S. suis IgdE constructs mentioned above or 10 nM purified rIgdE for 16 h at 37° C. prior subjection to SDS-PAGE under either reducing or non-reducing conditions.
as §1

cow IgG = assay: IgG cleavage by IgdE, SDS-PAGE; type: biochemical; settings: purified polyclonal IgG, reducing SDS-PAGE
Protocol: as §4, §1

horse IgG = assay: IgG cleavage by IgdE, SDS-PAGE; type: biochemical; settings: purified polyclonal IgG, reducing SDS-PAGE
Protocol: as §4, §1

goat IgG = assay: IgG cleavage by IgdE, SDS-PAGE; type: biochemical; settings: purified polyclonal IgG, reducing SDS-PAGE
Protocol: as §4, §1

porcine IgG [3] = assay: IgG cleavage by IgdE, SDS-PAGE; type: biochemical, pig; settings: purified polyclonal IgG, reducing SDS-PAGE
Protocol: (A) Schematic illustration of IgdE and the different rIgdE constructs with potential active site residues substitutions and the C-terminal truncation variant. The secretion signal peptide (residues 1-37) is marked in light grey, the transglutaminase domain is boxed and the potential active site residues and substitutions are indicated. (B) 3.3 μM porcine IgG was incubated for 16 h at 37° C. with soluble fractions of E. coli cells expressing different rIgdE constructs. The reaction was analyzed SDS-PAGE under reducing conditions. […] The weak protein band of 37 kDa is a contaminant present in lysate preparation and not related to IgdE activity.
as §4, §1

human IgG = assay: IgG cleavage by IgdE, SDS-PAGE; type: biochemical; settings: purified polyclonal IgG, reducing SDS-PAGE
Protocol: (§5) (A) rIgdEagalactiae was incubated with polyclonal IgG of six different species for 18 h at 37° C. and analyzed by SDS-PAGE under reducing conditions. Degradation products are indicated by asterisks (*). Images of different gels have been used to create the figure. (B) rIgdEagalactiae was incubated with human or bovine serum for 18 h in 37° C. and analyzed by SDS-PAGE under reducing conditions. Degradation products are indicated by asterisks (*). (C) Western Blot with crude extracts of rIgdEagalactiae incubated with human and porcine serum for 18 h in 37° C. Membrane was treated with antibodies against human and porcine polyclonal IgG respectively. Degradation products are indicated by asterisks (*). (D) rIgdEagalactiae was incubated with subclasses of human IgG as well as human IgA and IgM for 18 h in 37° C. and analyzed by SDS-PAGE under reducing conditions. Degradation products are indicated by asterisks (*). Images of different gels have been used to create the figure.
as §4, §1

IgG in human serum = assay: Ig cleavage in human serum, anti-IgG Western blot; type: biochemical
Protocol: as §5

rat IgG = assay: IgG cleavage by IgdE, SDS-PAGE; type: biochemical; settings: purified polyclonal IgG
[4] = 125 fold molar excess of inhibitor, 37° C., up to 18 h

Molecule	IgG cleavage product in presence of inhibitor [1]	IgG cleaving activity in the presence of class specific protease inhibitors [1]	IgG proteolytic activity of purified IgdE^ΔC in presence of inhibitor (S. suis IgdE^ΔC; purified recombinant IgdE^ΔC, inhibitor at 250 μM and 2.5 μM per FIG. 3)	IgG proteolytic activity of purified IgdE^ΔC in presence of inhibitor (S. suis IgdE^ΔC; [4])	immunoglobulin specificity of the IgG degrading cysteine protease activity (IgG)	cleavage of IgA in porcine plasma or serum (porcine IgA)	cleavage of IgG in porcine plasma or serum (porcine IgG [2])	cleavage of polyclonal mouse IgG (mouse IgG)	cleavage of polyclonal cow IgG (cow IgG)	cleavage of polyclonal horse IgG (horse IgG)	cleavage of polyclonal goat IgG (goat IgG)	cleavage of polyclonal porcine IgG (32 kDa degradation product) (porcine IgG [3])	cleavage of polyclonal human IgG (32 kDa degradation product) (human IgG)	cleavage of IgG in human serum (IgG in human serum)	cleavage of polyclonal rat IgG (rat IgG)
O=C(O)CN(CCN(CC(=O)O)CC(=O)O)CC(=O)O [EDTA]	A cleavage product of IgG can be observed	did not affect IgG cleavage	fully active												
CC(C)CC(NC(=O)OCc1ccccc1)C(=O)NC(C(=O)NCC(=O)C=[N+]=[N-])C(C)C (stereo not drawn) [Z-LVG-CHN2] (Cbz-Leu-Val-Gly-CHN2; configuration not given here)	no degradation product was observed	appeared to inhibit IgG degrading activity		no cleavage product at all could be detected; also recorded: completely inhibited											
NC(=O)CI [iodoacetamide]	no degradation product was observed	appeared to inhibit IgG degrading activity		no cleavage product at all could be detected											
IgdEporcinus: IgdE isolated from S. porcinus strain DSM20725, SEQ ID NO: 5 (protein, listed as Streptococcus porcinus) AVLARENSNSGQLHPEARQIKAVDFQEFSKKLKEEISENQQFHVFKLGMNNYYRSGIRINELNNLATEHDFILVNDHASHKKYDVPHIFIMNKGDVIVPSKEKYDEQMREVKFAGDQPNAQRQRIHALFEIGLDSNKRQLLNAAGLGTAENTLAKVDGFTIYSHGLTVDNKYYEDYIRFNKNENINITKERFTANDNLIHNLITESTAKVQTNDRDKVKAFVMYVANHTIYDWIAANNAVSNISDVNYYLGSDLFSITERKKAMCVGFSTTAARAFNMLGIPAYVVVGKNAQGVDHATARAYYNGKWHTIDGTGFINDKASRSTIYSENHFYSIGEDSYNIVDVNDEQIAFDKNYMKIDKVFEEWAQKQPTADLLLINKDKSLVPSNYVAYVAPVIVDNNRKGSLTQIYQNLKQVMESSSQKASLTSLLNTATADIAKLQTSSQLTQEDYNQIQNSMKSVLSFFWQLDKDSATNFENSEDYKKYLTETKNAGN					specific for porcine IgG	but not IgM or IgA	cleaved IgG in porcine serum	No degradation product was observed	No degradation product was observed	No degradation product was observed	No degradation product was observed	cleaved	No degradation product was observed		
IgdEpseudoporcinus: IgdE isolated from S. pseudoporcinus strain ATCC BAA-1381, SEQ ID NO: 9 (protein, listed as Streptococcus pseudoporcinus) RENENVRQLQSENKQMKAVNLQEFSEKLKGEIAENQQFHIFKLGLNNYYIGGVRINELSDLAKNHDFIMIDNRATHNKYGVPHIIIMNKDDVIVHNQEDYNKEMAELTFAGDKPIQSDSYLPQKKRIHALFEIGLDSNRRQLLNAAGLKTPENSVIELDTFKIYSHGLAVDNKYYDEYSHFNNNTNVNITKQRFTENDNLIHNLITTSTAKDQPTDRDKVKTFVMYVANHTIYDWNAANNAVSNISDVNYYLGSDLFSITERKKAMCVGFSTTAARAFNMLGIPAYVVEGKNAQGVDHATARVYYNGKWHTIDGTGFINGNRTRSTLYTESHFRSVGEDSYQLVGLNEDIPFDRNYMKIDKVYEEWAPKQKTADLLLVNKDKSLVGLDRVAYVEPVYVDKNRQDALTQIYKKLKETMESSSKKNPSSGGFSSLLGSASSDIAKLEGSSQLTQEEYDKIHRSMTSILTFFAQLDKDAAEAFEKGNDYKNYLATTKHAQ					specific for porcine IgG		cleaved IgG in human and porcine serum	No degradation product was observed	No degradation product was observed	No degradation product was observed	No degradation product was observed	cleaved	cleaved	cleaved IgG in human and porcine serum	No degradation product was observed
